Target: NF-kB p65 (RelA) (UniProt Q04206 Q04206:1-551)
Test: competition; primary screen 2.10
Conditions: protein: extract; tags: TPA and CI-stimulated Jurkat nuclear extract, Active Motif TransAM kit
Procedure: The measurement was performed in accordance with the instructions attached to the kit. The kit was made for quantifying the NF-κB bound to the solid phase by ELISA after adding an NF-κB solution to the wells in which the NF-κB (p65 protein) consensus binding sequence was immobilized and after washing the resultant. By this measurement method, the higher the binding capacity of the oligonucleotide to the NF-κB, the smaller amount of the NF-κB quantified by the ELISA.
More concretely, the above-described measurement was carried out as follows concretely: Each SODN solution was serially diluted with Complete Binding Buffer contained in the kit to prepare test samples (common ratio: 3-fold, 4 times, n=3). […] After allowing coloration for 10 minutes, the Stop Solution was added to stop the reaction, and the absorbances at 450 nm and 630 nm were measured.
The absorbance at 630 nm was subtracted from the absorbance at 450 nm and the mean value of the blanks was further subtracted from the resultant, and the percentage of the mean value of each concentration based on the mean value of the controls was calculated. The concentration at which the calculated value was 50% (i.e., at which the binding was inhibited by 50%) was calculated from the regression lines between two points interposing 50% (an analysis software Graph Pad PRISM 4, GraphPad SOFTWARE was used). […]

NF-kB p65 (RelA), sequence (Q04206 whole entry, one chain of several): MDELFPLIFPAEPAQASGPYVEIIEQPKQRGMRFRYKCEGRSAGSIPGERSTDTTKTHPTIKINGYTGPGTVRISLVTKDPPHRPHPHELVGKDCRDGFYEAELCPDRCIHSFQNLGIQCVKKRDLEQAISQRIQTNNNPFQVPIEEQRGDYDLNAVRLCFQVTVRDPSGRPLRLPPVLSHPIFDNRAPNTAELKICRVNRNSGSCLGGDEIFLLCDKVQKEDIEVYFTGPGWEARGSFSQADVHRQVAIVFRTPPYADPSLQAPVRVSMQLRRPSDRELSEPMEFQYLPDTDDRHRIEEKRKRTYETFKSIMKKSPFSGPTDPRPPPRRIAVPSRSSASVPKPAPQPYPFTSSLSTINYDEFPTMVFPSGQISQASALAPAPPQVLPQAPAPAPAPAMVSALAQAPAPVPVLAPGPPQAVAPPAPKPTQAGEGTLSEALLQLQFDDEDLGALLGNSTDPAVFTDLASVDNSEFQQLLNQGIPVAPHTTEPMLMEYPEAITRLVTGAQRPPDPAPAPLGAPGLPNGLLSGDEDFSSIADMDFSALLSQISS

B1: SODN36 (dsDNA)
DNA 1: CTCGGGATTTCCCAGCTCG
DNA 2: CGAGCTGGGAAATCCCGAG
modifications: PS all bonds, both strands
IC50: 2.61 nM

Source: patent US20100167390, “Novel Oligonucleotide and NF-kB Decoy Comprising the Same” (published 2010)
